Measurements from the supplement of paper PMC5998384.

Legend:
[1] = system: HeLa Kyoto; test: solubility in G1/S (NP-40 vs SDS abundance) (log2 ratio); higher = more soluble; settings: cell cycle stage: G1/S
[2] = system: HeLa Kyoto; test: melting temperature (median over replicates), in situ; higher = more thermally stable
[3] = system: HeLa Kyoto; test: solubility change mitosis vs G1/S (difference of NP-40 vs SDS log2 ratios) (log2 ratio difference); higher = more soluble in mitosis
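For melting temperature (median over replicates), in situ in this document: HeLa Kyoto cells synchronized by double thymidine or nocodazole block, proteins quantified by TMT10plex mass spectrometry, three independent biological replicates.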
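For solubility change mitosis vs G1/S (difference of NP-40 vs SDS log2 ratios) in this document: synchronized HeLa Kyoto cells (double thymidine block for G1/S, nocodazole release for mitosis), protein amounts in NP-40 versus SDS lysates quantified by mass spectrometry, three biological replicates.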
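For solubility in G1/S (NP-40 vs SDS abundance) in this document: HeLa Kyoto cells arrested at G1/S by double thymidine block, proteins quantified by TMT10plex mass spectrometry in mild NP-40 versus SDS extracts, three biological replicates.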

“MAASRSTRVTRSTVGLNGLDESFCGRTLRNRSIAHPEEISSNSQVRSRSPKKRPEPVPIQKGNNNGRTTDLKQQSTRESWVSPRKRGLSSSEKDNIERQAIENCERRQTEPVSPVLKRIKRCLRSEAPNSSEEDSPIKSDKESVEQRSTVVDNDADFQGTKRACRCLILDDCEKREIKKVNVSEEGPLNSAVVEEITGYLAVNGVDDSDSAVINCDDCQPDGNTKQNSIGSYVLQEKSVAENGDTDTQTSMFLDSRKEDSYIDHKVPCTDSQVQVKLEDHKIVTACLPVEHVNQLTTEPATGPFSETQSSLRDSEEEVDVVGDSSASKEQCKENTNNELDTSLESMPASGEPEPSPVLDCVSAQMMSLSEPQEHRYTLRTSPRRAAPTRGSPTKNSSPYRENGQFEENNLSPNETNATVSDNVSQSPTNPGEISQNEKGICCDSQNNGSEGVSKPPSEARLNIGHLPSAKESASQHITEEEDDDPDVYYFESDHVALKHNKDYQRLLQTIAVLEAQRSQAVQDLESLGRHQREALKNPIGFVEKLQKKADIGLPYPQRVVQLPEIVWDQYTHSLGNFEREFKNRKRHTRRVKLVFDKVGLPARPKSPLDPKKDGESLSYSMLPLSDGPEGSSSRPQMIRGRLCDDTKPETFNQLWTVEEQKKLEQLLIKYPPEEVESRRWQKIADELGNRTAKQVASRVQKYFIKLTKAGIPVPGRTPNLYIYSKKSSTSRRQHPLNKHLFKPSTFMTSHEPPVYMDEDDDRSCFHSHMNTAVEDASDDESIPIMYRNLPEYKELLQFKKLKKQKLQQMQAESGFVQHVGFKCDNCGIEPIQGVRWHCQDCPPEMSLDFCDSCSDCLHETDIHKEDHQLEPIYRSETFLDRDYCVSQGTSYNYLDPNYFPANR [ZZZ3]” was tested, and the “solubility in G1/S (log2)” value [1] was -0.198, the melting temperature ([2]; cell cycle stage: G1/S) was 48.9 °C and the melting temperature ([2]; cell cycle stage: mitosis) was 49.1 °C. For the same sequence, the “solubility change mitosis (log2)” value [3] was 0.273.
For “MADKPDMGEIASFDKAKLKKTETQEKNTLPTKETIEQEKRSEIS [TMSB10]”, the “solubility in G1/S (log2)” value [1] was -1.37, the melting temperature ([2]; cell cycle stage: G1/S) was 53.8 °C and the “solubility change mitosis (log2)” value [3] was 0.336.
With “MADSSPALSLREGGPRAPRPSAPSPPPRSRSGSESEEAELSLSLARTKTRSYGSTASVRAPLGAGVIERHVEHRVRAGDTLQGIALKYGVTMEQIKRANKLFTNDCIFLKKTLNIPVISEKPLLFNGLNSIDSPENETADNSFSQEEEPVVAGEDLPPPSPQESDVQPVQPEEVSARDFLQRLDLQIKLSTQAAKKLKEESRDEESPYATSLYHS [LYSMD2]” the “solubility in G1/S (log2)” value [1] was 0.0316, the melting temperature ([2]; cell cycle stage: G1/S) was 52 °C and the melting temperature ([2]; cell cycle stage: mitosis) was 51.8 °C. For the same sequence, the “solubility change mitosis (log2)” value [3] was -0.0367.
In the case of “MADYWKSQPKKFCDYCKCWIADNRPSVEFHERGKNHKENVAKRISEIKQKSLDKAKEEEKASKEFAAMEAAALKAYQEDLKRLGLESEILEPSITPVTSTIPPTSTSNQQKEKKEKKKRKKDPSKGRWVEGITSEGYHYYYDLISGASQWEKPEGFQGDLKKTAVKTVWVEGLSEDGFTYYYNTETGESRWEKPDDFIPHTSDLPSSKVNENSLGTLDESKSSDSHSDSDGEQEAEEGGVSTETEKPKIKFKEKNKNSDGGSDPETQKEKSIQKQNSLGSNEEKSKTLKKSNPYGEWQEIKQEVESHEEVDLELPSTENEYVSTSEADGGGEPKVVFKEKTVTSLGVMADGVAPVFKKRRTENGKSRNLRQRGDDQ [WBP4]”, the “solubility in G1/S (log2)” value [1] is reported as -0.703, the melting temperature ([2]; cell cycle stage: mitosis) is reported as 54.7 °C and the “solubility change mitosis (log2)” value [3] is reported as 0.763.
“MAEAGTGEPSPSVEGEHGTEYDTLPSDTVSLSDSDSDLSLPGGAEVEALSPMGLPGEEDSGPDEPPSPPSGLLPATVQPFHLRGMSSTFSQRSRDIFDCLEGAARRAPSSVAHTSMSDNGGFKRPLAPSGRSPVEGLGRAHRSPASPRVPPVPDYVAHPERWTKYSLEDVTEVSEQSNQATALAFLGSQSLAAPTDCVSSFNQDPSSCGEGRVIFTKPVRGVEARHERKRVLGKVGEPGRGGLGNPATDRGEGPVELAHLAGPGSPEAEEWGSHHGGLQEVEALSGSVHSGSVPGLPPVETVGFHGSRKRSRDHFRNKSSSPEDPGAEV [TSSC4]” was tested, and the “solubility in G1/S (log2)” value [1] was 0.167, the melting temperature ([2]; cell cycle stage: G1/S) was 51 °C and the melting temperature ([2]; cell cycle stage: mitosis) was 50.5 °C. For the same sequence, the “solubility change mitosis (log2)” value [3] was 0.0166.
In the case of “MAENREPRGAVEAELDPVEYTLRKRLPSRLPRRPNDIYVNMKTDFKAQLARCQKLLDGGARGQNACSEIYIHGLGLAINRAINIALQLQAGSFGSLQVAANTSTVELVDELEPETDTREPLTRIRNNSAIHIRVFRVTPK [POP7]”, the “solubility in G1/S (log2)” value [1] is reported as 0.19, the melting temperature ([2]; cell cycle stage: mitosis) is reported as 54.9 °C and the “solubility change mitosis (log2)” value [3] is reported as -0.0753.
With “MAERGRKRPCGPGEHGQRIEWRKWKQQKKEEKKKWKDLKLMKKLERQRAQEEQAKRLEEEEAAAEKEDRGRPYTLSVALPGSILDNAQSPELRTYLAGQIARACAIFCVDEIVVFDEEGQDAKTVEGEFTGVGKKGQACVQLARILQYLECPQYLRKAFFPKHQDLQFAGLLNPLDSPHHMRQDEESEFREGIVVDRPTRPGHGSFVNCGMKKEVKIDKNLEPGLRVTVRLNQQQHPDCKTYHGKVVSSQDPRTKAGLYWGYTVRLASCLSAVFAEAPFQDGYDLTIGTSERGSDVASAQLPNFRHALVVFGGLQGLEAGADADPNLEVAEPSVLFDLYVNTCPGQGSRTIRTEEAILISLAALQPGLIQAGARHT [C9ORF114]” the “solubility in G1/S (log2)” value [1] was -1.68, the melting temperature ([2]; cell cycle stage: mitosis) was 51.8 °C and the “solubility change mitosis (log2)” value [3] was 0.696.
In the case of “MAEYLASIFGTEKDKVNCSFYFKIGACRHGDRCSRLHNKPTFSQTIALLNIYRNPQNSSQSADGLRCAVSDVEMQEHYDEFFEEVFTEMEEKYGEVEEMNVCDNLGDHLVGNVYVKFRREEDAEKAVIDLNNRWFNGQPIHAELSPVTDFREACCRQYEMGECTRGGFCNFMHLKPISRELRRELYGRRRKKHRSRSRSRERRSRSRDRGRGGGGGGGGGGGGRERDRRRSRDRERSGRF [U2AF1]”, the “solubility in G1/S (log2)” value [1] is reported as -0.457, the melting temperature ([2]; cell cycle stage: G1/S) is reported as 46.8 °C and the melting temperature ([2]; cell cycle stage: mitosis) is reported as 48.2 °C. For the same sequence, the “solubility change mitosis (log2)” value [3] was 0.342.
For “MAFWCQRDSYAREFTTTVVSCCPAELQTEGSNGKKEVLSGFQVVLEDTVLFPEGGGQPDDRGTINDISVLRVTRRGEQADHFTQTPLDPGSQVLVRVDWERRFDHMQQHSGQHLITAVADHLFKLKTTSWELGRFRSAIELDTPSMTAEQVAAIEQSVNEKIRDRLPVNVRELSLDDPEVEQVSGRGLPDDHAGPIRVVNIEGVDSNMCCGTHVSNLSDLQVIKILGTEKGKKNRTNLIFLSGNRVLKWMERSHGTEKALTALLKCGAEDHVEAVKKLQNSTKILQKNNLNLLRDLAVHIAHSLRNSPDWGGVVILHRKEGDSEFMNIIANEIGSEETLLFLTVGDEKGGGLFLLAGPPASVETLGPRVAEVLEGKGAGKKGRFQGKATKMSRRMEAQALLQDYISTQSAKE [AARSD1]”, the “solubility in G1/S (log2)” value [1] was 0.18, the melting temperature ([2]; cell cycle stage: G1/S) was 49.8 °C and the melting temperature ([2]; cell cycle stage: mitosis) was 49.9 °C. The “solubility change mitosis (log2)” value [3] was -0.0164.
In the case of “MAGQHLPVPRLEGVSREQFMQHLYPQRKPLVLEGIDLGPCTSKWTVDYLSQVGGKKEVKIHVAAVAQMDFISKNFVYRTLPFDQLVQRAAEEKHKEFFVSEDEKYYLRSLGEDPRKDVADIRKQFPLLKGDIKFPEFFKEEQFFSSVFRISSPGLQLWTHYDVMDNLLIQVTGKKRVVLFSPRDAQYLYLKGTKSEVLNIDNPDLAKYPLFSKARRYECSLEAGDVLFIPALWFHNVISEEFGVGVNIFWKHLPSECYDKTDTYGNKDPTAASRAAQILDRALKTLAELPEEYRDFYARRMVLHIQDKAYSKNSE [TYW5]”, the “solubility in G1/S (log2)” value [1] is reported as -0.0115, the melting temperature ([2]; cell cycle stage: G1/S) is reported as 53.8 °C and the melting temperature ([2]; cell cycle stage: mitosis) is reported as 53.8 °C. For the same sequence, the “solubility change mitosis (log2)” value [3] was -0.114.
“MAICQFFLQGRCRFGDRCWNEHPGARGAGGGRQQPQQQPSGNNRRGWNTTSQRYSNVIQPSSFSKSTPWGGSRDQEKPYFSSFDSGASTNRKEGFGLSENPFASLSPDEQKDEKKLLEGIVKDMEVWESSGQWMFSVYSPVKKKPNISGFTDISPEELRLEYHNFLTSNNLQSYLNSVQRLINQWRNRVNELKSLNISTKVALLSDVKDGVNQAAPAFGFGSSQAATFMSPGFPVNNSSSDNAQNFSFKTNSGFAAASSGSPAGFGSSPAFGAAASTSSGISTSAPAFGFGKPEVTSAASFSFKSPAASSFGSPGFSGLPASLATGPVRAPVAPAFGGGSSVAGFGSPGSHSHTAFSKPSSDTFGNSSISTSLSASSSIIATDNVLFTPRDKLTVEELEQFQSKKFTLGKIPLKPPPLELLNV [NUPL2]” was tested, and the “solubility in G1/S (log2)” value [1] was -0.304, the melting temperature ([2]; cell cycle stage: mitosis) was 51.7 °C and the “solubility change mitosis (log2)” value [3] was 0.326.
